The text below walks through data of patent EP0531080A2, “Peptide inhibitors of human papilloma virus protein binding to retinoblastoma gene protein” (MERCK & CO. INC., priority 1991, dated 1993).

Where a SMILES comes first, the peptide text is derived from it. Where no end group is shown, it is not given here. [ ]: non-standard residue; d: D form. NMeY = CN[C@@H](Cc1ccc(O)cc1)C(=O)O; NMeL = CN[C@@H](CC(C)C)C(=O)O

Assay [1] concerns the target T1, HPV-16 E7 protein binding to the RBG protein (Homo sapiens, UniProt P06400).
T1 sequence (P06400 1-928): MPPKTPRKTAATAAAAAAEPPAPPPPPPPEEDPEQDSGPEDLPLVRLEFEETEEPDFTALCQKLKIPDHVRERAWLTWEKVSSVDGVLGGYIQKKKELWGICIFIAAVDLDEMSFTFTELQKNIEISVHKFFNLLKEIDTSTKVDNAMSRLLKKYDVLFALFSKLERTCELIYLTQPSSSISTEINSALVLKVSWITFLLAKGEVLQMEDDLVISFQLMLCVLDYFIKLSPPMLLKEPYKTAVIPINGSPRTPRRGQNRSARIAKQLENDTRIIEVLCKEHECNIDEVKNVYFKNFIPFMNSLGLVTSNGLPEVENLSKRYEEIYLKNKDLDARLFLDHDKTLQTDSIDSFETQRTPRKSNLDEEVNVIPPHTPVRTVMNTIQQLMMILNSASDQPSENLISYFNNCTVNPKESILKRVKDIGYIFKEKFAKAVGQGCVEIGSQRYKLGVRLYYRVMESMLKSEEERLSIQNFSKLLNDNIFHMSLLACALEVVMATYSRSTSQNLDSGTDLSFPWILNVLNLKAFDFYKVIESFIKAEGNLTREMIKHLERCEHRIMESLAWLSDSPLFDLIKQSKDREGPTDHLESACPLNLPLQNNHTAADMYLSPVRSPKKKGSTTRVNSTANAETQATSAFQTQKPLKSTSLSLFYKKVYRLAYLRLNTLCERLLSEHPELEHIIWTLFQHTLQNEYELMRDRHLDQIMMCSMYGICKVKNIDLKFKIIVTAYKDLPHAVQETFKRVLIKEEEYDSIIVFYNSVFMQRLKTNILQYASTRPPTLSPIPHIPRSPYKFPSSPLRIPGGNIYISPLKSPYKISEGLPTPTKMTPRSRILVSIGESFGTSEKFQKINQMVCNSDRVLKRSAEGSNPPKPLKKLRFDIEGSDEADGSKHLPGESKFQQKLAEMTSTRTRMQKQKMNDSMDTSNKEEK
The assay is described as follows: HPV-16 E7 protein binding assay described by R.E. Jones et al. Particulars: lowest concentration stated to inhibit. As for the experimental part: Peptides D and E were examined in the HPV-16 E7 protein binding assay described by R.E. Jones et al., The Journal of Biological Chemistry, Vol 265:12782-12785, 1990. This assay measures the binding of the E7 protein to the RBG protein. Peptides D and E inhibited HPV-16 E7 protein binding to the RBG protein at concentrations of Peptide D as low as 20nM and at concentrations of Peptide E as low as 2nM. […] Additionally, Peptide D and Peptide E are themselves antagonists of the HPV E7 protein binding to the RBG protein.

For assay [2], the target named is T1, HPV-16 E7 protein binding to the RBG protein. The assay is described as follows: Binding inhibition assay by immune precipitation (Example 2; Hela cell lysate plus radiolabeled E7 from rabbit reticulocyte lysate). More on the design: Whole cell lysates of Hela cells were used as a source of human RBG protein; endogenous in cells; host or cells: HeLa whole cell lysate (RB); rabbit reticulocyte lysate, T7 promoter clone (E7). On the procedure:
Peptide A, Peptide B, and Acetyl-GRP 20-27 were assayed for their abilities to inhibit the binding of the HPV-16 E7 protein to the RBG protein. Binding inhibition assays were carried out in vitro using a modification of the procedure described by N. Dyson et al., Science 243: 934-936 1989. Whole cell lysates of Hela cells were used as a source of human RBG protein. Rabbit reticulocyte cell free lysates that permit transcription and translation of exogenously added DNAs served as a source of HPV-16 E7 protein. The HPV-16 E7 gene was added to the rabbit reticulocyte lysate as a recombinant DNA clone under the control of a T7 promoter and incubated for 60 minutes at 30°C in the presence of radiolabeled methionine to allow transcription of the HPV-16 E7 gene and translation into E7 protein that contained radiolabeled methionine. The Hela cell and rabbit reticulocyte lysates were then mixed and incubated at 4°C for 90 minutes. After further manipulations a murine antibody against the RBG protein was added and incubated at 4°C for 60 minutes. Next, a rabbit anti-mouse IgG antibody and protein A sepharose was added to the reaction mixture in order to immune precipitate the RBG protein. At the same time, the E7 protein that was bound to the RBG protein was also precipitated. […] This biochemical protocol yields a quantitative estimate of the binding of HPV-16 E7 protein to the RBG protein in vitro. […]

The next assay addresses T2, RBG Protein/E7 (Homo sapiens, UniProt P06400).
T2 construct: made in house; host or cells: rabbit reticulocyte lysate (in vitro translation of RB)
T2 sequence (P06400 1-928): T1 sequence (P06400 1-928)
Briefly: E7/RB plate binding assay (recombinant E7 on plate, 35S-labeled RBG protein). Conditions: average of at least two experiments, triplicate; read-out: PLATE ASSAY RBG Protein/E7 IC₅₀. As for the experimental part: (§1) An in vitro solution assay used for the detection of complex formation between E7 protein and p105-RB has been described by Dyson, et. al. (30). Cell lysates used as source of RBG protein were prepared from human T24 bladder carcinoma cells as described (30). C36 and the control antibody Pb416 are monoclonal antibodies directed against RGB protein and SV40 large T protein, respectively. These antibodies were a generous gift from E. Harlow (Cold Spring Harbor Laboratories, Cold Spring Harbor, NY). Immunoprecipitates of E7/RGB protein binding reactions containing serially diluted peptide antagonists were dissolved in 35 µl gel loasing buffer (30). Five µl was counted directly in Right Safe (Beckan, Palo Alto, CA.) scintillation cocktail and 25 µl was subjected to sodium dodecyl sulphate poly-acrylamide gel electrophoresis. Gels were dried and exposed to Kodak X-AR film at -70°C overnight. In order to more rapidly assay large numbers of samples and more easily quantitate the binding results, we developed a plate binding asszy for the detection of E7/RGB protein association. Purified recombinant E7 was resuspended in 0.1 M sodium carbonate, pH 9.5, at 1 ng/µl. Fifty microliters of this solution was placed inot each well of a polyvinyl chloride micortiter plate (COSTAR 2596, Cambridge, MA.). The plate was gently agitated for 18 hours at 4°C. The E7 solution was aspirated off and 100 µl of plate blocking buffer (PBB) [50mM Hepes 7.0, 250mM sodium chloride, 0.1% NP40, 0.5% (w/v) pigskin gelatin, and 0.02% sodium azide] was added pwe well. The buffer was removed and the plate was washed three times in the above buffer without the gelatin (PB). five femtomoles of ³⁵S-methionine (Amersham 100 Ci/mmole, Arlington Heights, IL.) labeled RBG protein prepared in a rabbit reticulocyte lysate was diluted in PB buffer containing various peptide antagonists to a final volume of 50 µl and added to the E7 treated plate. The plate was agsin incubated at 4°C with agitation for 1 hour after which the solution was aspirated and each well washed five times with PB. The top of the plate was removed using a hot wire cutting apparatus (D. Lee, Sunnyvale, CA). Each well eas placed in 3 ml of Ready Safe scintillation cocktail (Beckman, Palo Alto, CA.) and counted for one minute. • 30. Dyson, N. Duffy, L.A., and Harlow, E. (1989) Cancer Cells 7, 235-240 • 31. Merrifield, R.B. (1963) J. Am. Chem. Soc. 85, 2149-2154 • 32. Sakakibara, S., Shimonishi, Y., Kishida, Y., Okada, M., and Sugihara, H. (1967) Bull. Chem. Soc. Japan 40, 2164-2167 • 33. Rivier, J., McClentock, R., and Anderson, H. (1984) J. Chromatogr. 288, 303-328
(§2) IC ₅₀ values represent the average of at least two experiments in which each concentration of inhibitor was tested in triplicate. The varition between experiments was less than 10%. The 50% inhibition concentration are micromolar. ND = not determined. [formula] [formula] [formula] [formula]

In assay [3] the target is T3, RBG Protein/E7 (complex formation between E7 protein and p105-RB) (Homo sapiens, UniProt P06400).
T3 construct: Cell lysates used as source of RBG protein were prepared from human T24 bladder carcinoma cells; endogenous in cells; host or cells: human T24 bladder carcinoma cells (whole cell lysate)
T3 sequence (P06400 1-928): T1 sequence (P06400 1-928)
Briefly: E7/RB solution assay (immunoprecipitation, T24 cell lysates as source of RBG protein). Particulars: average of at least two experiments, triplicate; read-out: SOLUTION ASSAY RBG Protein/E7 IC₅₀. Type of assay: binding. On the procedure:
as §1, §2

As to `CC(=O)N[C@@H](CC(=O)O)C(=O)N(C)[C@@H](CC(C)C)C(=O)N[C@@H](Cc1ccc(O)cc1)C(=O)N[C@@H](CS)C(=O)N(C)[C@@H](Cc1ccc(O)cc1)C(=O)N[C@@H](CCC(=O)O)C(=O)N[C@@H](CCC(N)=O)C(=O)N(C)[C@@H](CC(C)C)C(=O)N[C@@H](CC(N)=O)C(N)=O` [Peptide E] (Ac-D[NMeL]YC[NMeY]EQ[NMeL]N-NH2), the “inhibited HPV-16 E7 protein binding to the RBG protein at concentrations as low as” value (shortened to “inhibited HPV-16 E7 protein binding”) in assay [1] is 2 nM.

As for Ac-DLYCYEQLN-NH2 [Peptide D], the “inhibited HPV-16 E7 protein binding” value in assay [1] amounted to 20 nM.

Take Ac-LYCYEQLNDSS-NH2 [Peptide C]: the “inhibited HPV-16 E7 protein binding” value in assay [2] (lowest concentration stated to inhibit) was 1 µM.

Take “Acetyl-GRP 20-27: last eight amino acid residues of the human gastrin releasing peptide, unrelated to the HPV E7 protein”: the “effect on HPV-16 E7 protein binding to the RBG protein” value in assay [2] (concentrations up to 60 uM) was “no effect”.

Take “E7-(14-29)-AMIDE (DLQPETTDLYCYEQLN-NH2; UniProt P03129 14-29, looked up, fragment) [Peptide 7]”: in the assay with RBG Protein/E7, the IC50 is 0.08 µM.

Consider “E7-(18-29)-AMIDE (ETTDLYCYEQLN-NH2; UniProt P03129 18-29, looked up, fragment) [Peptide 8]”, for which the IC50 came to 0.4 µM in assay [3] and 0.06 µM in the assay with RBG Protein/E7.

Consider “E7-(20-32)-AMIDE (TDLYCYEQLNDSS-NH2; UniProt P03129 20-32, looked up, fragment) [Peptide 1]”, for which the IC50 in assay [3] was 1 µM; with RBG Protein/E7, 0.05 µM.

Regarding “E7-(21)32)-AMIDE (DLYCYEQLNDSS-NH2; UniProt P03129 21-32, looked up, fragment) [Peptide 10]”, the results for the IC50 (in assay [3]; with RBG Protein/E7) were 20 µM and 11.4 µM, respectively.

Turning to “TDLFCYEQLN-NH2 [Peptide 19, [Phe²³]-E7-(20-29)-AMIDE]”, the IC50 at RBG Protein/E7 is 0.06 µM.

For [ABU²⁴]-E7-(20-32)-AMIDE [Peptide 17], the IC50 in assay [3] turned out to be 20 µM.

For the compound [ACM²⁴]-E7-(20-32)-AMIDE [Peptide 18], the IC50 in assay [3] was above 100 µM.

Turning to “[G1n27]]-E7-(20-27)-AMIDE (TDLYCYEQ-NH2; UniProt P03129 20-27, looked up, fragment) [Peptide 5]”, the IC50 in assay [3] was determined as 50 µM; in the assay with RBG Protein/E7, 9.1 µM.

Regarding “[Ser²⁴]-E7-(20-32)-AMIDE (TDLYSYEQLNDSS-NH2; UniProt P03129 20-32, looked up, variant C24S) [Peptide 16]”, the IC50 in assay [3] was 40 µM.
